According to PMC4081100, “A DNA-binding-site landscape and regulatory network analysis for NAC transcription factors in Arabidopsis thaliana”:
Where a chain is given by its changes, count along the chain named.

Columns and labels:
GST-NTL6(1-168) = GST-NTL6(1-168) (Arabidopsis thaliana, UniProt Q9SCK6 1-168); assay: EMSA; EMSA with 75 pM 32P-labelled DNA, binding buffer as in cited refs 7 and 36; oligos annealed in 20 mM Tris-HCl pH 8.0, 20 mM MgCl2; details: protein: recombinant; tags: GST; chain copies: 2; label: 32P; 5' overhangs 4 nt (GATC) on both strands
GST-ANAC092(1-176) = target: T1, GST-ANAC092(1-176) (Arabidopsis thaliana, UniProt Q9FKA0 1-176); assay: as above; details: protein: recombinant, tags: GST, chain copies: 2, label: 32P
T1 sequence: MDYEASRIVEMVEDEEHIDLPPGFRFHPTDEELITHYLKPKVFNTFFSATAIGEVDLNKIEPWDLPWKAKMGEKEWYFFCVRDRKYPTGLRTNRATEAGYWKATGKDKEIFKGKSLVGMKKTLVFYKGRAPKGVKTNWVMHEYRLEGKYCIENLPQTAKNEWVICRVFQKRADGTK

Sequence of GST-NTL6(1-168) (Q9SCK6 1-168): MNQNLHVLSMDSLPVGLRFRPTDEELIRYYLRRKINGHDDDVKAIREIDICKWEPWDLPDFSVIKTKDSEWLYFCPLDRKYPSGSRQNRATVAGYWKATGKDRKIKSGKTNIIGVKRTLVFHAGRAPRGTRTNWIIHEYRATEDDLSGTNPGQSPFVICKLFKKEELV

B1: MYB90Synth (Synthetic promoter) (dsDNA)
DNA 1: GATCAGGTTCAGCTAAGTAACCGATCCAGG
DNA 2: GATCCCTGGATCGGTTACTTAGCTGAACCT
B1: binds (GST-NTL6(1-168)).

B2: PalNACBS (dsDNA)
DNA 1: CAGTCTTGCGTGTTGGAACACGCAACAGTC
DNA 2: GACTGTTGCGTGTTCCAACACGCAAGACTG
B2: binds (GST-ANAC092(1-176); blunt).

B3: MYB90 WT promoter (dsDNA)
DNA 1: B1 DNA 1 with A16C, A19C
DNA 2: B1 DNA 2 with T16G, T19G
B3: binds (GST-ANAC092(1-176); 5' overhangs 4 nt (GATC) on both strands); no binding (GST-NTL6(1-168)).
